{"source": "paper PMC12624060", "about": "“Structures of human organellar SPFH protein complexes” (Nature Communications, 2025)", "binders": {"B1": {"name": "C-terminally Flag-tagged Erlin2 (natural protein, human)", "chain": "MAQLGAVVAVASSFFCASLFSAVHKIEEGHIGVYYRGGALLTSTSGPGFHLMLPFITSYKSVQTTLQTDEVKNVPCGTSGGVMIYFDRIEVVNFLVPNAVYDIVKNYTADYDKALIFNKIHHELNQFCSVHTLQEVYIELFDQIDENLKLALQQDLTSMAPGLVIQAVRVTKPNIPEAIRRNYELMESEKTKLLIAAQKQKVVEKEAETERKKALIEAEKVAQVAEITYGQKVMEKETEKKISEIEDAAFLAREKAKADAECYTAMKIAEANKLKLTPEYLQLMKYKAIASNSKIYFGKDIPNMFMDSAGSVSKQFEGLADKLSFGLEDEPLETATKEN", "modifications": "N-linked glycan on N106", "notes": "Erlin2, human; cDNA in pcDNA5; 13 copies in the 26-subunit Erlin1/2 complex as modelled; also called Erlin2-Flag; source: Expi293F, co-transfected with Strep-Erlin1; complex purified (StrepTactin, anti-FLAG M2, Superose 6) in DDM/CHS; not shown: Flag, C-terminal, kept; copies: 13"}, "B2": {"name": "N-terminally Strep-tagged PHB1 (stable Expi293F line) (natural protein, human)", "chain": "MAAKVFESIGKFGLALAVAGGVVNSALYNVDAGHRAVIFDRFRGVQDIVVGEGTHFLIPWVQKPIIFDCRSRPRNVPVITGSKDLQNVNITLRILFRPVASQLPRIFTSIGEDYDERVLPSITTEILKSVVARFDAGELITQRELVSRQVSDDLTERAATFGLILDDVSLTHLTFGKEFTEAVEAKQVAQQEAERARFVVEKAEQQKKAAIISAEGDSKAAELIANSLATAGDGLIELRKLEAAEDIAYQLSRSRNITYLPAGQSVLLQLPQ", "notes": "PHB1 (prohibitin 1), human; cDNA in pHAGE; 11 copies in the 22-subunit PHB1/2 complex; also called prohibitin; source: solubilised membranes (DDM/CHS) and complex purified on StrepTactin; not shown: Strep, N-terminal, kept; copies: 11"}, "B3": {"name": "N-terminally Strep-tagged Erlin1 (natural protein, human)", "chain": "MTQARVLVAAVVGLVAVLLYASIHKIEEGHLAVYYRGGALLTSPSGPGYHIMLPFITTFRSVQTTLQTDEVKNVPCGTSGGVMIYIDRIEVVNMLAPYAVFDIVRNYTADYDKTLIFNKIHHELNQFCSAHTLQEVYIELFDQIDENLKQALQKDLNLMAPGLTIQAVRVTKPKIPEAIRRNFELMEAEKTKLLIAAQKQKVVEKEAETERKKAVIEAEKIAQVAKIRFQQKVMEKETEKRISEIEDAAFLAREKAKADAEYYAAHKYATSNKHKLTPEYLELKKYQAIASNSKIYFGSNIPNMFVDSSCALKYSDIRTGRESSLPSKEALEPSGENVIQNKESTG", "modifications": "N-linked glycan on N108", "notes": "Erlin1, human; cDNA in pcDNA5; 13 copies in the 26-subunit Erlin1/2 complex as modelled; source: Expi293F, co-transfected with Erlin2-Flag; complex purified (StrepTactin, anti-FLAG M2, Superose 6) in DDM/CHS; not shown: Strep, N-terminal, kept; copies: 13"}}, "key": {"[1]": {"target": "the molecule itself", "assay": "cryo-EM structure; Erlin1/2 complex after tandem affinity purification and SEC, in 50 mM HEPES/KOH pH 7.4, 150 mM NaCl, 0.02% DDM, 0.004% CHS; single-particle map at 3.0 Å, no symmetry applied in the last refinement"}, "[2]": {"target": "T1, untagged PHB2 (human, UniProt Q99623 1-299)", "T1 construct": "PHB2 (prohibitin 2), human; 11 copies in the 22-subunit PHB1/2 complex; source: complex purified on StrepTactin; copies: 11", "T1 sequence (Q99623 whole entry)": "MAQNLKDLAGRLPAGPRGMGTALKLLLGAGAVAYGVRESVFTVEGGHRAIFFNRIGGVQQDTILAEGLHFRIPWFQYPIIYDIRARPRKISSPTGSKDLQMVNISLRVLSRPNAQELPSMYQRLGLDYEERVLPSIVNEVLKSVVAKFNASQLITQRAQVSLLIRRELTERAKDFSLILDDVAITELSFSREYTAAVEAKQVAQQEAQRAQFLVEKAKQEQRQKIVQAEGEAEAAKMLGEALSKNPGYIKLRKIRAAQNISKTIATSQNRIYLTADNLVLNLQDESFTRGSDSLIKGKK", "assay": "cryo-EM structure; PHB1/2 complex after one-step StrepTactin purification, in 20 mM HEPES/KOH pH 7.4, 50 mM K-phosphate, 150 mM KCl, 5 mM magnesium acetate, 5 mM ATP, DDM/CHS; closed (2.4 Å) and open (3.1 Å) conformations, C11 symmetry", "settings": "both partners purified"}}}
{"binder": "B1", "values": [{"measurement": "binding result", "setting": "[1]", "value": "binds"}]}
{"binder": "B2", "values": [{"measurement": "stoichiometry N", "setting": "[2]", "value": "11 heterodimers in the complex"}]}
{"binder": "B3", "values": [{"measurement": "binding result", "setting": "[1]", "value": "binds"}]}
